Test results taken from WO1992001059A1.

What was measured:
[1] = molecular target: carcinoembryonic antigen (CEA) (UniProt P06731); experiment: competition RIA, 125I-labelled A5B7 IgG1 on CEA coated beads, purified material
[2] = molecular target: carcinoembryonic antigen (CEA) (UniProt P06731); experiment: competition RIA on CEA coated beads
[3] = molecular target: carcinoembryonic antigen (CEA) (UniProt P06731); experiment: competition RIA on CEA coated beads, transfected CHO cell supernatant
[4] = molecular target: carcinoembryonic antigen (CEA) (UniProt P06731); experiment: competition RIA on CEA coated beads, transfected CHO cell supernatant; apparent A5B7 concentration divided by assembly assay result

Chain of carcinoembryonic antigen (CEA) (P06731 35-685 limits assumed): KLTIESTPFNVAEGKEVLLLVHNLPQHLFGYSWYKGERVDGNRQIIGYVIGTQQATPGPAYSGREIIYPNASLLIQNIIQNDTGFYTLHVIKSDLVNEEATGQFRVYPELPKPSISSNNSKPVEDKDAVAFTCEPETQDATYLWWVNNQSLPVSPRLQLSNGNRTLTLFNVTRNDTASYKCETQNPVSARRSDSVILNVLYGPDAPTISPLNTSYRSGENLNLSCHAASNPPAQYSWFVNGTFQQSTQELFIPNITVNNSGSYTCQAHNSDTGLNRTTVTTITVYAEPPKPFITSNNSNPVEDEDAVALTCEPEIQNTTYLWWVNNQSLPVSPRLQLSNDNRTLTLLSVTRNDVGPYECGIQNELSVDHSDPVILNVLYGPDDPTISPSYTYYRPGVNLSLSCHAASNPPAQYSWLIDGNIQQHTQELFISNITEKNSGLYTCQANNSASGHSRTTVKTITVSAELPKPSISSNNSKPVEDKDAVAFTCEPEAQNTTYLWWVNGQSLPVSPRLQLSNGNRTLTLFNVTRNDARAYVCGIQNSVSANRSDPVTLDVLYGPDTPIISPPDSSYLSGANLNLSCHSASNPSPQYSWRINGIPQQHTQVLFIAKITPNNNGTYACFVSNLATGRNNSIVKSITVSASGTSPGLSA

% Relative Potency [1] [%]	fold reduced potency against murine A5B7 IgG [2] [fold]	% Relative Potency [3] [%]	Specific activity [4]	Substance
8	10	–	–	murine A5B7 Fab' (alkylated)
97	–	–	–	murine A5B7 F(ab')2
100	–	100	1.17	chimeric A5B7 IgG1 whole antibody
